Laboratory results taken from patent publication US20230374534.

Key:
[1] = biological target: CBF1-Myc (from CBF1-Myc^OE Arabidopsis plants)
[2] = biological target: His-CBF1 (histidine-tagged C-repeat-binding transcription factor 1), recombinant
Sequence of His-CBF1 (histidine-tagged C-repeat-binding transcription factor 1), recombinant (chain, as listed by the source): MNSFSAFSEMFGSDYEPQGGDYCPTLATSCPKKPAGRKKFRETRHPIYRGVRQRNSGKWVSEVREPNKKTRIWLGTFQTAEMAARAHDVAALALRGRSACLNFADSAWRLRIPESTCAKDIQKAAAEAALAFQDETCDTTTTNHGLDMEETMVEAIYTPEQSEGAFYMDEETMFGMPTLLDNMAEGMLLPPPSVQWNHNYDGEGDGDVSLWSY

Sequence of CBF1-Myc (from CBF1-Myc^OE Arabidopsis plants) (chain, as listed by the source): as above

Protein	cold-induced structural switching of CBF1-Myc oligomers in planta (non-reducing gel, CBF1-Myc^OE/Col-0 against CBF1-Myc^OE/trx-h2) [1]	EMSA: mobility shift of the biotin-labeled COR15a promoter probe with His-CBF1 [2]	dissociation of CBF1 oligomers into monomers (Trx system with NADPH, Trx reductase and 5 µM Trx-h2; non-reducing SDS-PAGE, western blot) [2]
Trx-h2, endogenous protein in Arabidopsis plants (protein) GGALSTVFGSGEDATAAGTESEPSRVLKFSSSARWQLHFNEIKESNKLLVVDFSASWCGPCRMIEPAIHAMADKFNDVDFVKLDVDELPDVAKEFNVTAMPTFVLVKRGKEIERIIGAKKDELEKKVSKLRA	gradually dissociated into small oligomers and monomers by cold (lanes 2-4). By contrast, no structural change was detected in CBF1 extracted from CBF1-Myc^OE/trx-h2 plants		
Thioredoxin h2 (Trx-h2), purified recombinant protein (protein) MGGALSTVFGSGEDATAAGTESEPSRVLKFSSSARWQLHFNEIKESNKLLVVDFSASWCGPCRMIEPAIHAMADKFNDVDFVKLDVDELPDVAKEFNVTAMPTFVLVKRGKEIERIIGAKKDELEKKVSKLRA		Treatment with DTT or Trx-h2 ... induced a distinct mobility shift in the probe interacting with His-CBF1	reduced and dissociated CBF1 oligomers into monomers
Trx-h2(C/S), redox-insensitive point mutant of Trx-h2, recombinant (protein) MGGALSTVFGSGEDATAAGTESEPSRVLKFSSSARWQLHFNEIKESNKLLVVDFSASWSGPSRMIEPAIHAMADKFNDVDFVKLDVDELPDVAKEFNVTAMPTFVLVKRGKEIERIIGAKKDELEKKVSKLRA		but not H2O2 or Trx-h2(C/S), induced a distinct mobility shift	
